Reference: the supplement of paper PMC10567573

B1: ZNF449 (parent)
chain: QLTGHQRIHSGEEPHKCPECGKRF

Variants of: B1
Assay: protein stability index of a GFP-peptide fusion (GPS, HEK-293T) (PSI 1-6); higher = more stable
Conditions: c terminus: a fixed tail appended
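Further: lentivirally expressed fusions sorted by FACS into six bins by GFP to DsRed ratio, PSI derived from sequencing read proportions per bin multiplied by bin number.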

Going from QLTGHNRIHSGEEPHKCPECGKRF [Q6N] to QLTGHDRIHSGEEPHKCPECGKRF [Q6D], the protein stability index rises from 3.77 to 4.77.

Going from QLTGHWRIHSGEEPHKCPECGKRF [Q6W] to QLTGHLRIHSGEEPHKCPECGKRF [Q6L], the protein stability index rises from 3.05 to 3.83.

Compared with QLTGHIRIHSGEEPHKCPECGKRF [Q6I], QLTGHRRIHSGEEPHKCPECGKRF [Q6R] is lower in protein stability index: 3 for the first, 2.88 for the second.

First: QLTGHFRIHSGEEPHKCPECGKRF [Q6F]
Second: QLTGHYRIHSGEEPHKCPECGKRF [Q6Y]
The protein stability index of the first is lower: 2.85 for the first, 3.97 for the second.

Compared with QLTGHSRIHSGEEPHKCPECGKRF [Q6S], QLTGHCRIHSGEEPHKCPECGKRF [Q6C] is lower in protein stability index: 4.24 for the first, 4.23 for the second.

First: QLTGHKRIHSGEEPHKCPECGKRF [Q6K]
Second: QLTGHHRIHSGEEPHKCPECGKRF [Q6H]
The protein stability index of the first is lower: 3.43 for the first, 4.16 for the second.

Compared with QLTGHARIHSGEEPHKCPECGKRF [Q6A], QLTGHPRIHSGEEPHKCPECGKRF [Q6P] is lower in protein stability index: 4.67 for the first, 4.04 for the second.

Going from QLTGHERIHSGEEPHKCPECGKRF [Q6E] to QLTGHVRIHSGEEPHKCPECGKRF [Q6V], the protein stability index falls from 3.77 to 3.27.

First: QLTGHGRIHSGEEPHKCPECGKRF [Q6G]
Second: QLTGHTRIHSGEEPHKCPECGKRF [Q6T]
The protein stability index of the first is lower: 3.44 for the first, 3.84 for the second.

Compared with QLTGHMRIHSGEEPHKCPECGKRF [Q6M], QLTGHQEIHSGEEPHKCPECGKRF [R7E] is higher in protein stability index: 3.68 for the first, 4.08 for the second.

Compared with QLTGHQPIHSGEEPHKCPECGKRF [R7P], QLTGHQKIHSGEEPHKCPECGKRF [R7K] is lower in protein stability index: 4.44 for the first, 4.31 for the second.

Compared with QLTGHQCIHSGEEPHKCPECGKRF [R7C], QLTGHQQIHSGEEPHKCPECGKRF [R7Q] is lower in protein stability index: 5.01 for the first, 4.22 for the second.

First: QLTGHQWIHSGEEPHKCPECGKRF [R7W]
Second: QLTGHQFIHSGEEPHKCPECGKRF [R7F]
The protein stability index of the first is higher: 3.36 for the first, 3.33 for the second.

First: QLTGHQYIHSGEEPHKCPECGKRF [R7Y]
Second: QLTGHQAIHSGEEPHKCPECGKRF [R7A]
The protein stability index of the first is lower: 4.14 for the first, 4.69 for the second.

Going from QLTGHQMIHSGEEPHKCPECGKRF [R7M] to QLTGHQGIHSGEEPHKCPECGKRF [R7G], the protein stability index rises from 4.43 to 4.56.

Compared with QLTGHQTIHSGEEPHKCPECGKRF [R7T], QLTGHQSIHSGEEPHKCPECGKRF [R7S] is higher in protein stability index: 4.74 for the first, 4.83 for the second.

Compared with QLTGHQNIHSGEEPHKCPECGKRF [R7N], QLTGHQDIHSGEEPHKCPECGKRF [R7D] is higher in protein stability index: 3.52 for the first, 4.85 for the second.

First: QLTGHQVIHSGEEPHKCPECGKRF [R7V]
Second: QLTGHQHIHSGEEPHKCPECGKRF [R7H]
The protein stability index of the first is lower: 3.78 for the first, 4.78 for the second.

Going from QLTGHQLIHSGEEPHKCPECGKRF [R7L] to QLTGHQIIHSGEEPHKCPECGKRF [R7I], the protein stability index falls from 4.7 to 4.58.

Going from QLTGHQRIPSGEEPHKCPECGKRF [H9P] to QLTGHQRINSGEEPHKCPECGKRF [H9N], the protein stability index falls from 4.28 to 4.13.

Going from QLTGHQRIDSGEEPHKCPECGKRF [H9D] to QLTGHQRIRSGEEPHKCPECGKRF [H9R], the protein stability index falls from 4.9 to 3.54.

First: QLTGHQRILSGEEPHKCPECGKRF [H9L]
Second: QLTGHQRIESGEEPHKCPECGKRF [H9E]
The protein stability index of the first is lower: 3.98 for the first, 4.61 for the second.

Going from QLTGHQRICSGEEPHKCPECGKRF [H9C] to QLTGHQRITSGEEPHKCPECGKRF [H9T], the protein stability index falls from 4.02 to 3.71.

Going from QLTGHQRIGSGEEPHKCPECGKRF [H9G] to QLTGHQRIMSGEEPHKCPECGKRF [H9M], the protein stability index rises from 3.52 to 3.59.

First: QLTGHQRIASGEEPHKCPECGKRF [H9A]
Second: QLTGHQRIVSGEEPHKCPECGKRF [H9V]
The protein stability index of the first is lower: 3.57 for the first, 4.48 for the second.

Compared with QLTGHQRIFSGEEPHKCPECGKRF [H9F], QLTGHQRIISGEEPHKCPECGKRF [H9I] is higher in protein stability index: 3.78 for the first, 3.8 for the second.

Compared with QLTGHQRIWSGEEPHKCPECGKRF [H9W], QLTGHQRIKSGEEPHKCPECGKRF [H9K] is higher in protein stability index: 3.34 for the first, 3.81 for the second.

Compared with QLTGHQRISSGEEPHKCPECGKRF [H9S], FLTGHQRIHSGEEPHKCPECGKRF [Q1F] is lower in protein stability index: 4.12 for the first, 2.09 for the second.

Going from PLTGHQRIHSGEEPHKCPECGKRF [Q1P] to VLTGHQRIHSGEEPHKCPECGKRF [Q1V], the protein stability index falls from 3.96 to 3.76.

Going from RLTGHQRIHSGEEPHKCPECGKRF [Q1R] to KLTGHQRIHSGEEPHKCPECGKRF [Q1K], the protein stability index falls from 3.87 to 3.61.

Going from DLTGHQRIHSGEEPHKCPECGKRF [Q1D] to GLTGHQRIHSGEEPHKCPECGKRF [Q1G], the protein stability index rises from 3.45 to 4.83.

First: LLTGHQRIHSGEEPHKCPECGKRF [Q1L]
Second: WLTGHQRIHSGEEPHKCPECGKRF [Q1W]
The protein stability index of the first is higher: 3.84 for the first, 2.03 for the second.

First: MLTGHQRIHSGEEPHKCPECGKRF [Q1M]
Second: YLTGHQRIHSGEEPHKCPECGKRF [Q1Y]
The protein stability index of the first is lower: 2.5 for the first, 2.71 for the second.

Going from CLTGHQRIHSGEEPHKCPECGKRF [Q1C] to ILTGHQRIHSGEEPHKCPECGKRF [Q1I], the protein stability index falls from 4.74 to 3.3.

First: TLTGHQRIHSGEEPHKCPECGKRF [Q1T]
Second: HLTGHQRIHSGEEPHKCPECGKRF [Q1H]
The protein stability index of the first is higher: 4.31 for the first, 3.69 for the second.

Compared with SLTGHQRIHSGEEPHKCPECGKRF [Q1S], NLTGHQRIHSGEEPHKCPECGKRF [Q1N] is lower in protein stability index: 4.72 for the first, 4.09 for the second.

Going from ELTGHQRIHSGEEPHKCPECGKRF [Q1E] to ALTGHQRIHSGEEPHKCPECGKRF [Q1A], the protein stability index rises from 3.42 to 4.5.

Going from QLQGHQRIHSGEEPHKCPECGKRF [T3Q] to QLRGHQRIHSGEEPHKCPECGKRF [T3R], the protein stability index falls from 3.66 to 3.48.

Compared with QLYGHQRIHSGEEPHKCPECGKRF [T3Y], QLSGHQRIHSGEEPHKCPECGKRF [T3S] is lower in protein stability index: 3.54 for the first, 2.94 for the second.

First: QLGGHQRIHSGEEPHKCPECGKRF [T3G]
Second: QLEGHQRIHSGEEPHKCPECGKRF [T3E]
The protein stability index of the first is lower: 3.69 for the first, 4.59 for the second.

First: QLLGHQRIHSGEEPHKCPECGKRF [T3L]
Second: QLHGHQRIHSGEEPHKCPECGKRF [T3H]
The protein stability index of the first is lower: 3.6 for the first, 4.45 for the second.

Going from QLFGHQRIHSGEEPHKCPECGKRF [T3F] to QLDGHQRIHSGEEPHKCPECGKRF [T3D], the protein stability index rises from 4.01 to 4.99.

Going from QLNGHQRIHSGEEPHKCPECGKRF [T3N] to QLKGHQRIHSGEEPHKCPECGKRF [T3K], the protein stability index rises from 2.66 to 3.99.

Compared with QLCGHQRIHSGEEPHKCPECGKRF [T3C], QLIGHQRIHSGEEPHKCPECGKRF [T3I] is lower in protein stability index: 4.82 for the first, 2.64 for the second.

First: QLMGHQRIHSGEEPHKCPECGKRF [T3M]
Second: QLPGHQRIHSGEEPHKCPECGKRF [T3P]
The protein stability index of the first is lower: 4.15 for the first, 4.61 for the second.

Going from QLWGHQRIHSGEEPHKCPECGKRF [T3W] to QLVGHQRIHSGEEPHKCPECGKRF [T3V], the protein stability index rises from 2.77 to 3.12.

Going from QLTGHQRIHSCEEPHKCPECGKRF [G11C] to QLTGHQRIHSAEEPHKCPECGKRF [G11A], the protein stability index falls from 4.88 to 4.64.
